Data: patent US20200397816A1, “METHODS TO TREAT INFLAMMATORY AND SMOOTH MUSCLE CELL PROLIFERATION DISORDERS” (THE TRUSTEES OF INDIANA UNIVERSITY, priority 2019, published 2020)
“Also recorded” adds a separate entry of the source.

Tests used:
[1] = tested on: SphK1; test: SphK1 transcripts qRT-PCR in hPASMC; type: cell-based, human; conditions: SMCs
Description: RAW 264.7 (ATCC) mouse macrophages and Human Embryonic Kidney (HEK) 293T cells were cultured in DMEM media with 10% fetal bovine serum […] and glutamine HEPES buffer and beta-mercaptoethanol were added to the growth medium used for RAW 264.7 macrophages. […]
Total RNA was extracted with TriZol using standard RNA extraction protocol and reverse transcribed with SuperScript III Reverse Transcriptase (Thermo Fischer Scientific). SphK1, Tnf, Il6, EGR1, Gapdh, Hprt1 transcripts were quantified using PrimePCR SYBR Green assays from BioRad. […]
Total RNA was extracted with TriZol using standard RNA extraction protocol and reverse transcribed with SuperScript III Reverse Transcriptase (Thermo Fisher Scientific). SPHK1, Tnf, Il6, EGR1, Gapdh, Hprt1 transcripts were quantified using PrimePCR SYBR Green assays from BioRad.

[2] = tested on: S1P; test: Lung tissue S1P by HPLC/MS/MS in neonatal mice; type: in vivo, mouse; conditions: neonatal C57BL/6 mice; recombinant EMAP II subQ days of life 3-15; postnatal day 15 lungs
Description: Animal experimental procedure was performed in accordance with the guidelines issued by the University of Notre Dame/Indiana University Institutional Animal and Use Committee. Lung tissues were harvested from postnatal day 15 C57BL/6 mice (Jackson laboratories) that were injected with either EMAP II or PBS at Day 3. Total protein was extracted and quantified. 1 mg of total protein was subjected to S1P quantification by HPLC/MS/MS.
Collected cells were rinsed with PBS, pelleted. Cell pellets and 1 mg of protein tissue extracts were frozen at −80° C. Sphingolipids extraction and analysis was carried out at the Medical University of South Carolina (MUSC) core facility using eight-point calibration curves generated for each target analyte by High Performance Liquid Chromatography-Tandem Mass Spectrometry (HPLC/MS/MS) system operating in positive multiple reaction-monitoring (MRM) mode engaging a gradient elution. Sphingolipids were normalized to inorganic phosphate levels in PASMC which was determined from the Bligh & Dyer lipid extraction method. Biological samples were from different passages collected on different days.

[3] = tested on: pERK1/2; test: pERK1/2 western blot time course in hPASMC; type: cell-based, human; conditions: SMCs
Description: RAW 264.7 (ATCC) mouse macrophages and Human Embryonic Kidney (HEK) 293T cells were cultured in DMEM media with 10% fetal bovine serum […] and glutamine HEPES buffer and beta-mercaptoethanol were added to the growth medium used for RAW 264.7 macrophages. Primary human pulmonary artery smooth muscle cells (hPASMC) purchased from Lonza (Walkersville, Md.) were cultured in complete growth medium containing smooth muscle growth media-2 (SmGM-2) with 10% FBS and growth factors provided as a kit by the supplier (Lonza, (Walkersville, Md.). THP-1 human monocyte cells were cultured in RPMI 1640 with 10% FBS and glutamine Cells were cultured in a humidified atmosphere with 5% CO2 at 370 C. For all studies passages 5-14 were used for RAW 264.7 and passages 5-10 were used for hPASMCs. For treatment studies, subconfluent cells plated in multi-well plates were serum starved and if required, pretreated for with inhibitors before stimulating with 2 μg/mL recombinant EMAP II.
After appropriate treatments, protein lysates were prepared by using RIPA buffer supplemented with phosphatase and protease inhibitors (Thermo Fischer Scientific). Alpha-tubulin was used as a loading control. For nuclear and cytoplasmic fractionation, NE-PER kit from Thermo Fischer Scientific was used. Western blots were performed according to standard methods and quantified using densitometry using Image Studio Lite software from LI-COR Biosciences.
RAW 264.7 (ATCC) mouse macrophages and HEK-293T (ATCC) cells were cultured in DMEM media with 10% (v/v) fetal bovine serum (FBS) and 2 mM glutamine HEPES buffer and beta-mercaptoethanol were added to the growth medium used for RAW 264.7 macrophages. […]
After appropriate treatments, protein lysates were prepared by using RIPA buffer supplemented with phosphatase and protease inhibitors (Thermo Fisher Scientific). […] Western blots were performed according to standard methods and quantified using densitometry using Image Studio Lite software from LI-COR Biosciences.

B1: EMAP II: 6x-His tagged recombinant EMAP II, cleaved C-terminal peptide of AIMP1 (SEQ ID NO: 2), pro-inflammatory cytokine (protein)
chain: IAGSADSKPIDVSRLDLRIGCIITARKHPDADSLYVEEVDVGEIAPRTVVSGLVNHVPLEQMQNRMVILLCNLKPAKMRGVLSQAMVMCASSPEKIEILAPPNGSVPGDRITFDAFPGEPDKELNPKKKIWEQIQPDLHTNDECVATYKGVPFEVKGKGVCRAQTMSNSGIK
time of peak SphK1 transcription after EMAP II stimulation [1]: 3 h | whole lung S1P levels compared to control [2]: significantly increased; also recorded: significant increase | earliest time pERK1/2 reached significance [3]: 3 minutes | time of pERK1/2 peak [3]: 3 minutes | ERK1/2 phosphorylation (pERK1/2) ([3]; 24-hour time course): bi-modal ERK1/2 activation; also recorded: induced pERK1/2
